How the values were obtained:
HLA-A*02:01 = HLA-A*02:01 (Homo sapiens, UniProt P04439, D140Y/D185E/D98H/E176V/E277Q/G131W/G231S/I119V/I121R/I166T/I218V/L300P/L318F/N151K/N90K/P208A/P217A/Q86G/Q94H/R138H/R169H/T345S); assay: MHC binding assay (UV-ligand exchange, beta2m ELISA, peptide exchange yield); settings: MHC class I binding score; binding to HLA-A*02:01 ranged by peptide exchange yield (UV-ligand exchange, β2m ELISA)
Text: Candidate peptides for T cell based therapies according to the present invention were further tested for their MHC binding capacity (affinity). The individual peptide-MHC complexes were produced by UV-ligand exchange, where a UV-sensitive peptide is cleaved upon UV-irradiation, and exchanged with the peptide of interest as analyzed. Only peptide candidates that can effectively bind and stabilize the peptide-receptive MHC molecules prevent dissociation of the MHC complexes. To determine the yield of the exchange reaction, an ELISA was performed based on the detection of the light chain (β2m) of stabilized MHC complexes. The assay was performed as generally described in Rodenko et al. (Rodenko et al., 2006).
96 well MAXISorp plates (NUNC) were coated over night with 2 ug/ml streptavidin in PBS at room temperature, washed 4× and blocked for 1 h at 37° C. in 2% BSA containing blocking buffer. Refolded HLA-A*02:01/MLA-001 monomers served as standards, covering the range of 15-500 ng/ml. Peptide-MHC monomers of the UV-exchange reaction were diluted 100 fold in blocking buffer. Samples were incubated for 1 h at 37° C., washed four times, incubated with 2 ug/ml HRP conjugated anti-β2m for 1 h at 37° C., washed again and detected with TMB solution that is stopped with […]. Absorption was measured at 450 nm. Candidate peptides that show a high exchange yield (preferably higher than 50%, most preferred higher than 75%) are generally preferred for a generation and production of antibodies or fragments thereof, and/or T cell receptors or fragments thereof, as they show sufficient avidity to the MHC molecules and prevent dissociation of the MHC complexes.

CD8+ T-cells = assay: In vitro T-cell priming assay with aAPCs loaded with peptide/MHC and anti-CD28, pMHC multimer readout; type: cell-based, human; settings: in vitro immunogenicity; for Wells positive: HLA-A*02 restricted peptides; for donors (percentage of positive donors) / wells (percentage of positive wells): HLA class I peptides
Text: In order to obtain information regarding the immunogenicity of the TUMAPs of the present invention, the inventors performed investigations using an in vitro T-cell priming assay based on repeated stimulations of CD8+ T-cells with artificial antigen presenting cells (aAPCs) loaded with peptide/MHC complexes and anti-CD28 antibody.
In order to perform in vitro stimulations by artificial antigen presenting cells loaded with peptide-MHC complex (pMHC) and anti-CD28 antibody, the inventors first isolated CD8+ T-cells from fresh HLA-A*02 leukopheresis products via positive selection using CD8 microbeads (Miltenyi Biotec, Bergisch-Gladbach, Germany) of healthy donors obtained from the University clinics Mannheim, Germany, after informed consent.
PBMCs and isolated CD8+ lymphocytes were incubated in T-cell medium (TCM) until use consisting of RPMI-Glutamax (Invitrogen, Karlsruhe, Germany) supplemented with 10% heat inactivated human AB serum (PAN-Biotech, Aidenbach, Germany), 100 U/ml Penicillin/100 μg/ml Streptomycin (Cambrex, Cologne, Germany), 1 mM sodium pyruvate (CC Pro, Oberdorla, Germany), 20 μg/ml Gentamycin (Cambrex). 2.5 ng/ml IL-7 (PromoCell, Heidelberg, Germany) and 10 U/ml IL-2 (Novartis Pharma, Nürnberg, Germany) were also added to the TCM at this step.
Generation of pMHC/anti-CD28 coated beads, T-cell stimulations and readout was performed in a highly defined in vitro system using four different pMHC molecules per stimulation condition and 8 different pMHC molecules per readout condition.
The purified co-stimulatory mouse IgG2a anti human CD28 Ab 9.3 (Jung et al., 1987) was chemically biotinylated using Sulfo-N-hydroxysuccinimidobiotin as recommended by the manufacturer (Perbio, Bonn, Germany). Beads used were 5.6 μm diameter streptavidin coated polystyrene particles (Bangs Laboratories, Illinois, USA).
800,000 beads/200 μl were coated in 96-well plates in the presence of 4×12.5 ng different biotin-pMHC, washed and 600 ng biotin anti-CD28 were added subsequently in a volume of 200 μl. Stimulations were initiated in 96-well plates by co-incubating 1×10^6 CD8+ T-cells with 2×10^5 washed coated beads in 200 μl TCM supplemented with 5 ng/ml IL-12 (PromoCell) for 3 days at 37° C. Half of the medium was then exchanged by fresh TCM supplemented with 80 U/ml IL-2 and incubating was continued for 4 days at 37° C. This stimulation cycle was performed for a total of three times. For the pMHC multimer readout using 8 different pMHC molecules per condition, a two-dimensional combinatorial coding approach was used as previously described (Andersen et al., 2012) with minor modifications encompassing coupling to 5 different fluorochromes. Finally, multimeric analyses were performed by staining the cells with Live/dead near IR dye (Invitrogen, Karlsruhe, Germany), CD8-FITC antibody clone SK1 (BD, Heidelberg, Germany) and fluorescent pMHC multimers. For analysis, a BD LSRII SORP cytometer equipped with appropriate lasers and filters was used. Peptide specific cells were calculated as percentage of total CD8+ cells. Evaluation of multimeric analysis was done using the FlowJo software (Tree Star, Oregon, USA). In vitro priming of specific multimer+ CD8+ lymphocytes was detected by comparing to negative control stimulations.

Substance | Peptide exchange (HLA-A*02:01) | further results
1 (ALIKQLFEA; listed as Homo sapiens) [compound 1] | ″+++″ (≥50 = +++) | Wells positive (CD8+ T-cells): ″+″ (<20% = +)
2 (ALLPRYFFL; listed as Homo sapiens) [compound 2] | ″++″ (≥20% = ++) | Wells positive (CD8+ T-cells): ″++++″ (>= 70% = ++++)
3 (RLIPDTLYSV; listed as Homo sapiens) [compound 3] | ″++++″ (≥75% = ++++) | Wells positive (CD8+ T-cells): ″+++″ (50%-69% = +++)
5 (WLFDDGGLTL; listed as Homo sapiens) [compound 5] | ″++++″ (≥75% = ++++) | Wells positive (CD8+ T-cells): ″++″ (20%-49% = ++)
7 (YLTRHLAVL; listed as Homo sapiens) [compound 7] | ″++″ (≥20% = ++) | Wells positive (CD8+ T-cells): ″+″ (<20% = +)
9 (ILDDHLSRV; listed as Homo sapiens) [compound 9] | ″++″ (≥20% = ++) | Wells positive (CD8+ T-cells): ″+″ (<20% = +)
10 (RMYNKIFAI; listed as Homo sapiens) [compound 10] | ″+++″ (≥50 = +++) | Wells positive (CD8+ T-cells): ″++++″ (>= 70% = ++++)
11 (YLFEKTFNM; listed as Homo sapiens) [compound 11] | ″+++″ (≥50 = +++) | Wells positive (CD8+ T-cells): ″+″ (<20% = +)
12 (ALVQGILERV; listed as Homo sapiens) [compound 12] | ″+++″ (≥50 = +++) | Wells positive (CD8+ T-cells): ″++++″ (>= 70% = ++++)
13 (FLLAEDTKV; listed as Homo sapiens) [compound 13] | ″+++″ (≥50 = +++) | Wells positive (CD8+ T-cells): ″++″ (20%-49% = ++)
17 (ALAAARVEL; listed as Homo sapiens) [compound 17] | ″+++″ (≥50 = +++) | Wells positive (CD8+ T-cells): ″++″ (20%-49% = ++)
18 (FLSSLKGGLL; listed as Homo sapiens) [compound 18] | ″+++″ (≥50 = +++) | Wells positive (CD8+ T-cells): ″+″ (<20% = +)
157 (SLIERDLKL; listed as Homo sapiens) [compound 157] | ″+++″ (≥50 = +++) | –
158 (GLLDPSVFHV; listed as Homo sapiens) [compound 158] | ″+++″ (≥50 = +++) | –
159 (VLVDDDGIKVV; listed as Homo sapiens) [compound 159] | ″++″ (≥20% = ++) | –
160 (KLLEFDQLQL; listed as Homo sapiens) [compound 160] | ″+++″ (≥50 = +++) | –
161 (FLKNELDNV; listed as Homo sapiens) [compound 161] | ″+++″ (≥50 = +++) | –
162 (KLMDYIDEL; listed as Homo sapiens) [compound 162] | ″+++″ (≥50 = +++) | –
163 (RLLHEVQEL; listed as Homo sapiens) [compound 163] | ″+++″ (≥50 = +++) | –
164 (KMLDEILLQL; listed as Homo sapiens) [compound 164] | ″++++″ (≥75% = ++++) | –
165 (RLLDFPEAMVL; listed as Homo sapiens) [compound 165] | ″++++″ (≥75% = ++++) | –
166 (GLLEARGILGL; listed as Homo sapiens) [compound 166] | ″+++″ (≥50 = +++) | –
167 (SVIDHIHLISV; listed as Homo sapiens) [compound 167] | ″+++″ (≥50 = +++) | –
219 (FLDEKGRCV; listed as Homo sapiens) [compound 219] | – | donors (percentage of positive donors) (CD8+ T-cells): +++ (50%-69% = +++); wells (percentage of positive wells) (CD8+ T-cells): ++ (20%-49% = ++)
220 (KMDPVAYRV; listed as Homo sapiens) [compound 220] | – | donors (percentage of positive donors) (CD8+ T-cells): ++++ (>=70% = ++++); wells (percentage of positive wells) (CD8+ T-cells): +++ (50%-69% = +++)

The next lines start with results.

Peptide exchange (HLA-A*02:01) | Substance | further results
″+++″ (≥50 = +++) | 168 (GLIRFPLMTI; listed as Homo sapiens) [compound 168] | –
″+++″ (≥50 = +++) | 169 (YLAHFIEGL; listed as Homo sapiens) [compound 169] | –
″+++″ (≥50 = +++) | 170 (ALAGGITMV; listed as Homo sapiens) [compound 170] | –
″++″ (≥20% = ++) | 171 (RLQETEGMVAV; listed as Homo sapiens) [compound 171] | –
″+++″ (≥50 = +++) | 172 (LLLDTVTMQV; listed as Homo sapiens) [compound 172] | –
″+++″ (≥50 = +++) | 173 (KLGDLMVLL; listed as Homo sapiens) [compound 173] | –
″++++″ (≥75% = ++++) | 174 (ILLDDNMQIRL; listed as Homo sapiens) [compound 174] | –
″+++″ (≥50 = +++) | 175 (TLLGGKEAQALGV; listed as Homo sapiens) [compound 175] | –
″++″ (≥20% = ++) | 176 (RTLDKVLEV; listed as Homo sapiens) [compound 176] | –
″+++″ (≥50 = +++) | 177 (ALLQGAIESV; listed as Homo sapiens) [compound 177] | –
″++″ (≥20% = ++) | 178 (YLFREPATI; listed as Homo sapiens) [compound 178] | –
″+++″ (≥50 = +++) | 179 (RLLSPLSSA; listed as Homo sapiens) [compound 179] | –
″+++″ (≥50 = +++) | 181 (NLFDLGGQYLRV; listed as Homo sapiens) [compound 181] | –
″++++″ (≥75% = ++++) | 182 (SLNKWIFTV; listed as Homo sapiens) [compound 182] | –
″+++″ (≥50 = +++) | 183 (TLQEVVTGV; listed as Homo sapiens) [compound 183] | –
″+++″ (≥50 = +++) | 184 (SLLDENNVSSYL; listed as Homo sapiens) [compound 184] | –
″+++″ (≥50 = +++) | 185 (VLYTGVVRV; listed as Homo sapiens) [compound 185] | –
″+++″ (≥50 = +++) | 186 (KMSEKILLL; listed as Homo sapiens) [compound 186] | –
″+++″ (≥50 = +++) | 187 (GLHNVVYGI; listed as Homo sapiens) [compound 187] | –
″+++″ (≥50 = +++) | 188 (FLVDGPRVQL; listed as Homo sapiens) [compound 188] | –
″+++″ (≥50 = +++) | 189 (AISEVIGKITA; listed as Homo sapiens) [compound 189] | –
″+++″ (≥50 = +++) | 190 (AMAEMVLQV; listed as Homo sapiens) [compound 190] | –
″++++″ (≥75% = ++++) | 191 (QLFSEIHNL; listed as Homo sapiens) [compound 191] | –

— US10221225B2, “Peptides and combination of peptides and scaffolds thereof for use in immunotherapy against colorectal carcinoma (CRC) and other cancers” (immatics biotechnologies GmbH, priority 2015, dated 2019)
